Measurements: patent US20240052048A1

Experiments:
[1] = molecular target: human-BAFF-Fc (human), Q9Y275; assay: ELISA (OD450), plate coated with BAFF 4 µg/ml, human BCMA titrated up to 10 µg/mL; EC50 table in the figure; details: remark: other sources report otherwise
[2] = molecular target: human-BAFF-Fc (human), Q9Y275; assay: ELISA (OD450), plate coated with BAFF 2 µg/ml, human BCMA titrated up to 10 µg/mL; EC50 table in the figure; details: remark: other sources report otherwise
[3] = molecular target: human-BAFF-Fc (human), Q9Y275; assay: ELISA (OD450), plate coated with BAFF 1 µg/ml, human BCMA titrated up to 10 µg/mL; EC50 table in the figure; details: remark: other sources report otherwise
[4] = molecular target: human-BAFF-Fc (human), Q9Y275; assay: ELISA (OD450), plate coated with BAFF 8 µg/ml, human BCMA titrated up to 10 µg/mL; EC50 table in the figure; details: remark: other sources report otherwise
[5] = molecular target: cyno-BCMA-His (cyno (monkey)); assay: ELISA (OD450), GSK2857916 titrated up to 10 µg/mL on Monkey BCMA-His; EC50 table in the figure
[6] = molecular target: cyno-BCMA-Fc (cyno (monkey)); assay: ELISA (OD450), GSK2857916 titrated up to 10 µg/mL on Monkey BCMA-Fc; EC50 table in the figure

Sequence of human-BAFF-Fc (human), Q9Y275 (Q9Y275 134-285 limits assumed): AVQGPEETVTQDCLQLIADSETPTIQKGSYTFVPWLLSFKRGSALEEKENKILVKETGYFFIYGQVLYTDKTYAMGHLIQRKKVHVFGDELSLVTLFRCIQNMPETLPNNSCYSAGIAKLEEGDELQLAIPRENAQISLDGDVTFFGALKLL

B1: human BCMA (recombinant antigen, tag not stated for the assay), Q02223 1-54 (receptor, UniProt Q02223 1-54, looked up)
chain: MLQMAGQCSQNEYFDSLLHACIPCQLRCSSNTPPLTCQRYCNASVTNSVKGTNA
EC50 [1]: 0.559 mg/L | EC50 [2]: 0.553 mg/L | EC50 [3]: 0.586 mg/L | EC50 [4]: 0.697 mg/L

B2: GSK2857916 (positive control antibody, not coupled to the toxin molecule) (antibody, V domains shown)
VH: QVQLVQSGAEVKKPGSSVKVSCKASGGTFSNYWMHWVRQAPGQGLEWMGATYRGHSDTYYNQKFKGRVTITADKSTSTAYMELSSLRSEDTAVYYCARGAIYDGYDVLDNWGQGTLVTVSS
VL: DIQMTQSPSSLSASVGDRVTITCSASQDISNYLNWYQQKPGKAPKLLIYYTSNLHSGVPSRFSGSGSGTDFTLTISSLQPEDFATYYCQQYRKLPWTFGQGTKLEIK
EC50 [5]: 0.463 mg/L | EC50 [6]: 0.336 mg/L
